Where a chain is given by its changes, count along the chain named. Values joined by “and” are separate entries in the source; they are usually repeats but may differ in a detail not shown here. Equal entries are not always repeated. One block for each binder: values may come before it.
Columns and labels:
[1] = biological target: T1, human CC chemokine receptor 4 (CCR4) (human, UniProt P51679 1-360); experiment: flow cytometry competition on DT-40-CCR4+ cells; IgG titrated, competitor biotinylated TARC (ca. 20 nM)
T1 construct: whole, on cells; Always presented on cells; also called CD194; human CCR4
T1 sequence (looked up): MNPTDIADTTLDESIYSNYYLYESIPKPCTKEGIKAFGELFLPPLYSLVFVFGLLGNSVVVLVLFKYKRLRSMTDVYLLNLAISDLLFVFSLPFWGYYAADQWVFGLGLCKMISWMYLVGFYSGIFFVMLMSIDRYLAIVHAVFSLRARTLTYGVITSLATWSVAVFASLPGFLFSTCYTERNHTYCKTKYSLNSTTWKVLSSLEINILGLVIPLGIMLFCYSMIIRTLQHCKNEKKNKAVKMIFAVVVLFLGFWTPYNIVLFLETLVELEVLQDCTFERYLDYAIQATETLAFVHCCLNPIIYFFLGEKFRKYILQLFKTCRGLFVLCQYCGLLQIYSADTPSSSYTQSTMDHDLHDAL
Procedure: The competition binding assays were performed with biotinylated MDC or biotinylated TARC on DT-40-CCR4+ and CCRF-CEM cells. DT40 and CCRF-CEM cells were cultured as described in Example 2. TARC and MDC were biotinylated using standard procedures. The biotinylation process causes some losses, so the concentrations of biotinylated MDC and TARC recited herein are approximate.
The cells were harvested from culture flasks, washed 2 times with PBS (400×g, 5 min, 4° C.) and resuspended in PBS containing 0.2% BSA and 0.09% NaN3. 1×10^5 cells per well were aliquoted into V-shaped 96-well plates (Greiner Bio-One, Frikenhausen, Germany). Cells were centrifuged (400×g, 5 min, 4° C.) and resuspended in 50 μl IgG, single chain or unlabeled ligand (1:10 dilution series starting on 100/500/26, 4 μg/ml) mixed with a fixed concentration of biotinylated ligand (10 or 20 nM, see legend to FIG. 24). The cells were incubated for 2 hours at 4° C. and mixed with a pipette every 45 min. The cells were washed three times with 150 μl PBS with 0.2% BSA and 0.09% NaN3 and stained with 3 μg/ml streptavidin PE (BD Biosciences) for 45 minutes at 4° C. […] Apparent binding affinities (KD) were calculated according to the following equation derived from previously described methods (Kipriyanov et al, 1997b; Schodin & Kranz, 1993): […]

[2] = biological target: T1, human CC chemokine receptor 4 (CCR4); experiment: flow cytometry, IgG titration on CCR4+ DT40 cells; one site-specific binding fit (Prism)
Procedure: (§1) The IgG forms of antibodies 17G, 9E and KM3060var using various CCR4⁺ cell types were used (see Example 2).
(§2) For the flow cytometry experiments, the cells were harvested from the culture flasks, washed 2 times with PBS, re-suspended in PBS with 0.2% BSA and 0.09% NaN₃ and finally aliquoted 1×10⁵ cells per well into V-shaped 96-well plates (Greiner Bio-One, Frickenhausen, Germany). Cells were centrifuged at 400×g for 5 min and then incubated at 4° C. for 45 min with different antibody dilutions.
(§3) After washing with PBS with 0.2% BSA and 0.09% NaN₃, the cells were stained with 10 μg/ml of RPE-conjugated goat anti-human IgG (AbDSerotec, Düsseldorf, Germany) for 30 minutes at 4° C. The stained cells were washed, re-suspended in 200 μl PBS with 0.2% BSA and 0.09% NaN₃ and transferred to a U-shaped 96-well plate (Corning, Schiphol-Rijk, The Netherlands) for acquisition on EasyCyte flow cytometer (Guava Technologies, Hayward, Calif., USA).

[3] = biological target: T1, human CC chemokine receptor 4 (CCR4); experiment: flow cytometry, IgG titration on CCR4+ HEK293T cells; one site-specific binding fit (Prism)
Procedure: as §1, §2, §3

[4] = biological target: T1, human CC chemokine receptor 4 (CCR4); experiment: competition flow cytometry on CCR4-transfected DT40 cells: unlabelled IgG against 7 nM biotinylated 9E IgG, streptavidin-RPE
Procedure: To analyze the epitope binding of anti-CCR4 antibodies 17G, 9E and KM3060var, competition experiments were performed using flow cytometry. The binding of biotinylated antibodies to CCR4 transfected DT40-cells was challenged in the presence of different concentrations of non-biotinylated anti-CCR4 antibodies. The CCR4⁺ DT40 cells were harvested from culture flasks, washed 2 times with PBS, re-suspended in PBS with 0.2% BSA and 0.09% NaN₃ and finally aliquoted 1×10⁵ cells per well into V-shaped 96-well plates (Greiner Bio-One, Frickenhausen, Germany). Cells were centrifuged at 400×g for 5 min and then incubated at 4° C. for 3-4 hours with fixed amounts of biotinylated IgG and different concentrations of non-biotinylated antibodies. After washing with PBS with 0.2% BSA and 0.09% NaN₃, the cells were stained with 2.5 μg/ml of Streptavidin—RPE (BD Pharmingen, San Diego, Calif., USA) for 30 minutes at 4° C. The stained cells were washed, re-suspended in 250 μl PBS with 0.2% BSA and 0.09% NaN₃ and transferred to a U-shaped 96-well plate (Corning, Schiphol-Rijk, The Netherlands) for acquisition on EasyCyte flow cytometer (Guava Technologies, Hayward, Calif., USA). The results shown in FIGS. 10 A, B and C illustrate that the 17G and 9E antibodies have epitopes that are identical or at least overlapping.

IC50 [1]: 0.26 nM and 0.4 nM
B1: 9E10J IgG (full length human IgG1, lambda) (antibody, V domains shown)
VH: QVQLVQSGAEVKKPGSSVKVSCKASGGTFSSYAISWVRQAPGQGLEWMGGIIPIFGTANYAQKFQGRVTMTRDTSTSTVYMELSSLRSEDTAVYYCARRGGSYFDYWGQGTLVTVSS
VL: SYVLTQPPSASGTPGQSVTISCSGSTSNIGSHYVFWYQQLPGTAPRLLIYRNHQRPSGVPDRLSGSKSGTSASLAISGLRSEDEADYYCAVWDDTLSGWVFGGGTKLTVLG
notes: also called IgG 9E10J; unmodified 9E10J

Kd [2]: 0.72 nM
Kd [3]: 0.36 nM
IC50 (read off the curve) [4]: ~3 nM
B2: 9E IgG (full length human IgG1, lambda) (antibody, V domains shown)
VH: B1 VH with S31N, M70I, R72A, T74E, V79A
VL: B1 VL
notes: also called IgG 9E; IgG1 9E

Source: patent US20160208003A1 (AFFITECH RESEARCH, published 2016)
